According to PMC3360964 (Molecular Cell, 2012):

Columns and labels:
Assay in all cases: pull-down
[1] = target: ELL2-F, affinity-purified (UniProt O00472 1-640)
[2] = target: T1, F-AFF4, wild type, affinity-purified (UniProt Q9UHB7 1-1163)
T1 sequence (looked up): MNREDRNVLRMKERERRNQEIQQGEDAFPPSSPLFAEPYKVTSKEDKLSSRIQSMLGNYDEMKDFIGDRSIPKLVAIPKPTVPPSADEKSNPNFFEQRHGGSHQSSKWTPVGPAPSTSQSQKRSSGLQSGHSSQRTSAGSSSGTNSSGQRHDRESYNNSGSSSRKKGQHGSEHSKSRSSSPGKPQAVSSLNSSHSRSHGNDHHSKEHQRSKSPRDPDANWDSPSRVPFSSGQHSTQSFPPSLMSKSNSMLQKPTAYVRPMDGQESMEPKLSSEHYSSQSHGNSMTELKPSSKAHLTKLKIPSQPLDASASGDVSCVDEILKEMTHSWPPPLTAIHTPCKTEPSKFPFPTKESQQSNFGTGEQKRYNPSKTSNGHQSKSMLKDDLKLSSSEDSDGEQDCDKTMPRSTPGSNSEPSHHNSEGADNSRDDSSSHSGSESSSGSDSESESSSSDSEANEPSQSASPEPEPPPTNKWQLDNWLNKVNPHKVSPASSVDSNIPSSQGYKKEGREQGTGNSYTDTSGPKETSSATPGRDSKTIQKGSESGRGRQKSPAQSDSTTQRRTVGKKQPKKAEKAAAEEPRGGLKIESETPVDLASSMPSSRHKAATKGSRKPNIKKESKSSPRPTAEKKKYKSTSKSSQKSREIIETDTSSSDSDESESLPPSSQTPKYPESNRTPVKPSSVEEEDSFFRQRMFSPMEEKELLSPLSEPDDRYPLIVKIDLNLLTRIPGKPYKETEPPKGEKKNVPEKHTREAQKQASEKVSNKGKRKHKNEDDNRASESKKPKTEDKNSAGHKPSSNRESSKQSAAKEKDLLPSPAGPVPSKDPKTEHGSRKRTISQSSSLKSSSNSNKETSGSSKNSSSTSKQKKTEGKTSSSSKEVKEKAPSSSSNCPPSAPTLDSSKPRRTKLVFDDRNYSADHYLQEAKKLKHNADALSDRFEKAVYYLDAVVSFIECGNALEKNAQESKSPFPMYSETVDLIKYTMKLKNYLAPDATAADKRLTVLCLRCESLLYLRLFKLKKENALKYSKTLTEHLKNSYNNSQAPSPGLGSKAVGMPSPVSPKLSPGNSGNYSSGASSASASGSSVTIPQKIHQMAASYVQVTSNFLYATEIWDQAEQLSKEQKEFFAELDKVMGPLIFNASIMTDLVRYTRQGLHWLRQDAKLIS

[3] = target: T2, F-AFF4(Δ301–400), affinity-purified (UniProt Q9UHB7 1-1163, Δ301–400)
T2 sequence (looked up): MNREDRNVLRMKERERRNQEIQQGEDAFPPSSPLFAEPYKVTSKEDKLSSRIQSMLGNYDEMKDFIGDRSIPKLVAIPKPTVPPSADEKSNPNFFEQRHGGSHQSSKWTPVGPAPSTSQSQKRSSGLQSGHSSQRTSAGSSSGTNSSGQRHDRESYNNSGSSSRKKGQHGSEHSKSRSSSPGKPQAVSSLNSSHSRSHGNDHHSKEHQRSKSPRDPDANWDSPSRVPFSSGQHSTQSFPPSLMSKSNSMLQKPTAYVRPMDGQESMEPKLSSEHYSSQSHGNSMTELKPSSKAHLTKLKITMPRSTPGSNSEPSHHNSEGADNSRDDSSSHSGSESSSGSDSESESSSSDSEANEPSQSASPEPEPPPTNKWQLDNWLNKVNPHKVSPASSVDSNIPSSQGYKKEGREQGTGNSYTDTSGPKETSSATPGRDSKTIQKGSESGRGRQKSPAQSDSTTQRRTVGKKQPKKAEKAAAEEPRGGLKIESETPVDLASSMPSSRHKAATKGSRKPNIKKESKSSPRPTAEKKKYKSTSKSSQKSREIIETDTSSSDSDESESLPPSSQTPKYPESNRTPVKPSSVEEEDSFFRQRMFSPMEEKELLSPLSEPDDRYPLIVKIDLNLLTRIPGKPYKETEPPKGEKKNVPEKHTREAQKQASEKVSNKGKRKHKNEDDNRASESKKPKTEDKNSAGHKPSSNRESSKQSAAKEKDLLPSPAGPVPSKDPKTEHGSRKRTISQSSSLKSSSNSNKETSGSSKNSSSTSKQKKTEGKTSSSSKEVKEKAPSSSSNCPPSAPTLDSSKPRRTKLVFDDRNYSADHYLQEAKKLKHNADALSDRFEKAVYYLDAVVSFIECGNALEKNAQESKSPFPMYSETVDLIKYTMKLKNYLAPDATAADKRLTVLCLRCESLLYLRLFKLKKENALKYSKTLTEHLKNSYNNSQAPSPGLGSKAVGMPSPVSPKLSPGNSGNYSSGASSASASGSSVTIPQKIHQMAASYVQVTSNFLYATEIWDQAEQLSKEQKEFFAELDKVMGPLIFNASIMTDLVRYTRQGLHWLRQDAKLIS

Measured: binding result

Sequence of ELL2-F, affinity-purified (O00472 whole entry): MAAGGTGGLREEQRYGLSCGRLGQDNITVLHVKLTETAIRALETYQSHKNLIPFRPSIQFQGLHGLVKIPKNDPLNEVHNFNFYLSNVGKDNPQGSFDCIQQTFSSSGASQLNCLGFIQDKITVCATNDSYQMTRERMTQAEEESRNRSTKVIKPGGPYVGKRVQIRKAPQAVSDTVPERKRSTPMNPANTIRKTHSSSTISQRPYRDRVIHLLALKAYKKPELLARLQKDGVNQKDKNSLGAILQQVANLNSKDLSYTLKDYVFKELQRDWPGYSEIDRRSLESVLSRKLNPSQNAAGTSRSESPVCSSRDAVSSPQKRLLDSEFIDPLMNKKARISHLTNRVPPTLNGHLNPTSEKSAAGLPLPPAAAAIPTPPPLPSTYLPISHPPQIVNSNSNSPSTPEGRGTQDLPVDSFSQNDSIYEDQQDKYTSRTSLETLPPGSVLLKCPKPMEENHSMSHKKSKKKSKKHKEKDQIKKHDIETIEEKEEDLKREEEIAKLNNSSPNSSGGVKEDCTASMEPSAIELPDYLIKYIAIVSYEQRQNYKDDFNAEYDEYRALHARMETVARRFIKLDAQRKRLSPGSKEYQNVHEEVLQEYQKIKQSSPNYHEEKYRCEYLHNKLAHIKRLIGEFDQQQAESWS

B1: HA-Siah1 immobilized on anti-HA beads (enzyme, human, UniProt Q8IUQ4-2 1-313, looked up)
chain: MTGKATPPSLYSWRGVLFTCLPAARTRKRKEMSRQTATALPTGTSKCPPSQRVPALTGTTASNNDLASLFECPVCFDYVLPPILQCQSGHLVCSNCRPKLTCCPTCRGPLGSIRNLAMEKVANSVLFPCKYASSGCEITLPHTEKADHEELCEFRPYSCPCPGASCKWQGSLDAVMPHLMHQHKSITTLQGEDIVFLATDINLPGAVDWVMMQSCFGFHFMLVLEKQEKYDGHQQFFAIVQLIGTRKQAENFAYRLELNGHRRRLTWEATPRSIHEGIATAIMNSDCLVFDTSIAQLFAENGNLGINVTISMC
binds: all assays above
